Results from PMC3813429.

Molecular target: HaALP, membrane bound alkaline phosphatase of Helicoverpa armigera (Helicoverpa armigera (endogenous in larval midgut))
Experiment: not given

| Substance | LC50, insect bioassay on H. armigera neonates (toxin on artificial diet surface, 5 days) |
| --- | --- |
| Cry1Ac W545A (domain or fragment) | 34.1 µg/mL |

Molecular target: HaALP, membrane bound alkaline phosphatase of Helicoverpa armigera (Helicoverpa armigera (endogenous in larval midgut))
Experiment: SPR

| Substance | Kd | koff | kon |
| --- | --- | --- | --- |
| Cry1Ac N510A (domain or fragment) | 58.4 nM | 0.00136 s⁻¹ | 23200 M⁻¹ s⁻¹ |
| Cry1Ac Q509A (domain or fragment) | 29.6 nM | 0.00571 s⁻¹ | 193000 M⁻¹ s⁻¹ |
| Cry1Ac R511A (domain or fragment) | 32 nM | 0.00179 s⁻¹ | 55800 M⁻¹ s⁻¹ |
| Cry1Ac W545A (domain or fragment) | 7150 nM | 0.00688 s⁻¹ | 963 M⁻¹ s⁻¹ |
| Cry1Ac Y513A (domain or fragment) | 223 nM | 0.00147 s⁻¹ | 6610 M⁻¹ s⁻¹ |
| Cry1Ac tetra mutant (Q509A-N510A-R511A.Y513A) (domain or fragment) | 2420 nM | 0.000184 s⁻¹ | 75 M⁻¹ s⁻¹ |
| Cry1Ac triple mutant (Q509A-N510A-R511A) (domain or fragment) | 262 nM | 0.00269 s⁻¹ | 10200 M⁻¹ s⁻¹ |
